Assay results published in the supplement of paper PMC10567573.

B1: LRRC45 (parent)
chain: FQTRQEMTSMSAELKMRAIQAEER
B2: ZNF511 (parent)
chain: AAPFRFVARPVRFPREHQFFEDGD

Variants of: B1
Assay: protein stability index of a GFP-peptide fusion (GPS, HEK-293T) (PSI 1-6); higher = more stable
Details: c terminus: a fixed tail appended
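Further: lentivirally expressed fusions sorted by FACS into six bins by GFP to DsRed ratio, PSI derived from sequencing read proportions per bin multiplied by bin number.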

Protein stability index of substitutions, site by site:
F1: G 4.46 | D 5.24 | C 4.85 | E 4.91 | A 4.88

Variants of: B2
Assay: as above
Details: c terminus: a fixed tail appended

Protein stability index, by site and new letter:
Q18: W 2.44 | M 2.86 | L 2.18 | F 1.69 | K 2.46 | D 1.8 | P 2.05 | C 1.64 | Y 1.74 | N 2.33 | H 1.7 | I 2.26 | R 2.27 | G 1.87 | A 2.77 | E 1.96 | T 1.69 | S 2.46 | V 1.9
E16: D 1.98 | C 1.93 | K 2.15 | H 2.25 | L 2.26 | M 1.57 | S 2.1 | F 1.82 | I 2.03 | Q 2.18 | N 1.75 | A 3.2 | G 2.53 | W 1.79 | R 2.32 | T 2.18 | Y 1.68 | V 2.34 | P 2.55
P14: G 1.76 | K 2.93 | Y 1.8 | M 2.17 | C 2.02 | D 2.26 | W 1.34 | E 2.45 | I 2.33 | A 2.16 | F 2 | S 1.88 | T 1.87 | L 1.84 | N 2.1 | V 2.22 | R 2.51 | H 1.69 | Q 2.15
R15: S 2.48 | Y 1.71 | V 1.86 | K 2.2 | L 3.44 | H 1.84 | N 1.62 | D 1.72 | T 2.57 | E 2.06 | P 2.85 | W 1.65 | C 2.03 | M 1.89 | A 1.94 | G 1.74 | I 1.98 | Q 2.51 | F 2.08
H17: Y 2.11 | A 2.66 | R 2.29 | T 2.35 | E 2.71 | C 2.66 | F 1.73 | V 1.94 | M 2.37 | G 2.29 | P 1.92 | L 2.15 | D 2.05 | N 2.71 | K 2.2 | S 2.2 | W 1.72 | I 2.59 | Q 2.45
F13: Q 2.1 | G 1.74 | L 2.49 | V 3.13 | C 1.8 | N 1.95 | Y 2.29 | A 2.25 | W 2.33 | P 2.74 | H 2.66 | D 2.1 | S 1.86 | I 2.48 | M 2.72 | E 2.36 | R 2.32 | T 2.37 | K 2.17
G23: M 1.91 | R 2.24 | A 2.29 | T 2.5 | E 2.25 | F 1.61 | Q 2.45 | W 2.02 | K 2.53 | L 2.56 | D 2.77 | P 2.69 | Y 2.35 | C 1.67 | S 2.49 | I 1.51 | H 2.18 | V 1.9 | N 2.36
A8: E 1.98 | G 2.29 | D 1.3 | N 2.23 | S 1.82 | W 2.26 | Q 1.66 | K 2.31 | F 2.02 | P 2.27 | M 2.74 | V 1.59 | C 1.96 | L 2.15 | H 2.58 | Y 2.19 | T 1.88 | I 2.77
D24: W 2.32 | S 2.01 | Q 2.06 | R 2.04 | V 2.73 | I 1.53 | E 3.01 | K 2.97 | N 2.88 | H 1.66 | F 1.83 | G 2.08 | Y 1.83 | M 1.49 | A 2.23 | T 1.72 | L 2.04 | P 2.1 | C 2.29
F20: V 2.85 | E 2.52 | H 1.91 | P 2.75 | K 2.46 | S 2.96 | C 2.95 | Y 2.6 | M 2.49 | A 2.2 | N 2.56 | L 2.96 | I 2.27 | D 2.54 | W 1.9 | G 2.59 | T 2.5 | Q 2.42 | R 2.32
F19: A 2.52 | M 3.14 | C 2.08 | G 2.8 | H 2.39 | T 2.81 | P 2.63 | K 2.08 | I 1.87 | V 2.11 | R 2.4 | E 2.61 | N 2.52 | D 2.48 | L 2.61 | S 2.25 | Q 2.46 | Y 2.57 | W 2.04
V11: T 1.94 | M 2.06 | S 2.34 | C 2.02 | I 2.08 | N 1.95 | P 2.03 | H 2.04 | E 1.99 | R 2 | G 1.53 | W 1.78 | A 1.96 | D 2.14 | Q 2.38 | F 1.99 | L 2.02 | Y 1.74 | K 1.75
R12: V 2.23 | I 2.97 | W 1.9 | A 1.48 | C 1.62 | Q 2.44 | S 3.73 | Y 1.74 | F 1.54 | H 2.18 | K 2.29 | E 1.97 | T 2.62 | L 2.13 | N 2.37 | G 2.1 | P 2.22 | M 2.03 | D 1.85
E21: K 2.19 | G 3.51 | Q 2 | S 2.24 | H 2.5 | T 1.64 | R 1.92 | P 2.45 | V 2.07 | N 2.29 | D 2 | F 1.65 | M 1.76 | A 1.96 | I 1.97 | Y 1.92 | C 1.91 | L 1.92 | W 1.69
P10: I 4.18 | E 1.81 | H 2.14 | K 2.77 | N 1.88 | T 1.29 | D 2.07 | S 1.5 | F 2.44 | Y 2.59 | C 2.36 | R 1.8 | G 1.87 | V 2.06 | L 1.75 | A 1.96 | Q 2.08
R9: T 1.83 | W 1.41 | Q 3.03 | L 1.94 | V 2.14 | A 2.41 | M 1.95 | H 1.89 | F 1.56 | E 2.21 | S 2.2 | N 1.38 | C 1.32 | K 1.95 | G 2.41 | Y 1.84 | P 3.54 | I 1.84
V7: P 4.46 | M 3.7 | W 3.67 | N 3.28 | Y 3.78 | S 3.76 | T 3.23 | Q 3.78 | K 3.6 | I 2.53 | L 3.64 | R 3.95
D22: Q 2 | M 1.72 | W 2.02 | A 1.94 | Y 2.16 | C 2.08 | I 1.64 | G 2.34 | E 1.98 | L 2.01 | T 2.29 | K 1.52 | S 2.29 | V 2.65 | P 2.44 | H 2.54 | N 2.25
